{
  "source": "paper PMC2712759",
  "about": "(2009)",
  "target": "purified recombinant Hsp70 (UniProt P0DMV8 1-641)",
  "sequence (P0DMV8 whole entry)": "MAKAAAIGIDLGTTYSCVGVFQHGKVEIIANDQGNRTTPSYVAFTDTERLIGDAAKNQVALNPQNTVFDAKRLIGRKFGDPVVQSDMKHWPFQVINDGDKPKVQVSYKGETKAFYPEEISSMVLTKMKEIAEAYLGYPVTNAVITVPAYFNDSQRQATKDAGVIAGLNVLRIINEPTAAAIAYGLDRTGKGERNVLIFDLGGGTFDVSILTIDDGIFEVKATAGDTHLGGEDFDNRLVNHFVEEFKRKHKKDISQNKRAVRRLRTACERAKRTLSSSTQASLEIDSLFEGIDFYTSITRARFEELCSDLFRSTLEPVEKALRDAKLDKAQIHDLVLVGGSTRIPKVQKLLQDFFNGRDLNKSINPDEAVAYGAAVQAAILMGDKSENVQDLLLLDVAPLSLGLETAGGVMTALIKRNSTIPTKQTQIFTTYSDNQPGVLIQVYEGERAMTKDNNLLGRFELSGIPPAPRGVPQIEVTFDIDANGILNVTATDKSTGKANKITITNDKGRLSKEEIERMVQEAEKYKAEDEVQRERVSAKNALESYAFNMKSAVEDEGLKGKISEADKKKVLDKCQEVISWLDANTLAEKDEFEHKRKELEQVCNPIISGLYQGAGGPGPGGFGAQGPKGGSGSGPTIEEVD",
  "data": [
    {"binder": "recombinant normal PABPN1 (wt-PABPN1) from E. coli (natural protein) MAAAAAAAAAAGAAGGRGSGPGRRRHLVPGAGGEAGEGAPGGAGDYGNGLESEELEPEELLLEPEPEPEPEEEPPRPRAPPGAPGPGPGSGAPGSQEEEEEPGLVEGDPGDGAIEDPELEAIKARVREMEEEAEKLKELQNEVEKQMNMSPPPGNAGPVIMSIEEKMEADARSIYVGNVDYGATAEELEAHFHGCGSVNRVTILCDKFSGHPKGFAYIEFSDKESVRTSLALDESLFRGRQIKVIPKRTNRPGISTTDRGFPRARYRARTTNYNSSRSRFYSGFNSRPRGRVYRGRARATSWYSPY", "values": [
      {"measurement": "Kd", "value": 14, "unit": "µM"}
    ]}
  ]
}
